According to patent publication US20180265577A1 (Eli Lilly, published 2018):

How the values were obtained:
[1] = molecular target: T1, recombinant tau (rTau) (UniProt P10636-8 1-441, limits assumed); experiment: direct ELISA on rTau coated at 15 ng/ml; antibody stored 4 weeks at pH 4, 40 C; Study 2
T1 construct: Coated at 'high' (1 ug/mL, simulates aggregated tau) or 'low' (15 ng/mL, simulates tau monomer) concentration; also called rTau Monomer
Method: (§1) Formulated samples are incubated for four weeks at 4° C. or 40° C. in an accelerated degradation study. Following incubation, binding affinity of the exemplified tau monoclonal antibody of Example 1 to rTau (15 ng/ml) coated on 96-well plates is determined by direct ELISA following the ELISA procedure substantially as described above.

[2] = molecular target: T2, tau aggregates in sarkosyl-insoluble brain homogenate preps of 4.5 to 5 month old P301S mice; experiment: cell-based or functional assay
[3] = molecular target: T3, human tau aggregates (human, UniProt P10636 2-758); experiment: SPR (Biacore 2000), antibody captured on protein A, tau aggregate as analyte, 1:1 fit
T3 construct: analyte in SPR; also called fibril tau; tau fibril aggregate
Method: (§2) Surface Plasmon Resonance (SPR) assay, measured with a BIACORE® 2000 instrument (primed with HBS-EP+ running buffer (GE Healthcare, 10 mM Hepes pH7.4+150 mM NaCl+3 mM EDTA+0.05% surfactant P20) at 25° C.), is used to measure binding of exemplified tau monoclonal antibody of Example 1 to both human monomeric (e.g., native or non-aggregate) tau and human tau aggregates (both having the amino acid sequence as set forth in SEQ ID NO:13). Binding of humanized MC-1 antibody construct (having the framework combination: 5-51 heavy-chain, A27 light-chain) to human monomeric tau and human tau aggregate is measured in the same manner.
(§3) Except as noted, all reagents and materials are from BIACORE® AB (Upsala, Sweden). A CMS chip containing immobilized protein A (generated using standard NHS-EDC amine coupling) on all four flow cells (FC) is used to employ a capture methodology. […]
(§4) Data of binding to tau aggregate is processed using standard double-referencing and fit to a 1:1 binding model using Biacore 2000 Evaluation software, version 4.1, to determine the association rate (kₒₙ, M⁻¹ s⁻¹ units), dissociation rate (koff, s⁻¹ units), and Rₘₐₓ (RU units). The equilibrium dissociation constant (KD) was calculated from the relationship KD=koff/kₒₙ, and is in molar units. Data of binding to monomeric tau cannot be determined accurately by SPR as described above due to rapid on- and off-rates. […]

[4] = molecular target: T4, purified tau fibrils from AD brain homogenates (human, UniProt P10636-8 2-441, limits assumed); experiment: direct ELISA on coated purified AD tau fibrils
T4 construct: Native brain-derived aggregated tau, coated at 0.7 ug/ml total tau; also called Purified AD Tau Fibrils; aggregate tau fibrils from AD brain homogenates
Method: (§5) Purified tau fibrils (50 μl) in PBS are coated on wells of 96-well plates (Coastar, p/n. 3690) at a concentration corresponding to 0.7 μg/ml of total tau. Plates are incubated overnight at 4° C., then washed three times with 150 μl of PBST (PBS containing 0.05% Tween-20), blocked in 100 μl BB3 (ImmunoChemistry Technology, p/n. 643) at room temperature for at least 1 hr (usually 2 hrs). Following blocking, the blocking buffer is removed from the wells. Exemplified tau monoclonal antibody of Example 1 and a humanized MC-1 antibody construct (having the framework combination: 5-51 heavy-chain, A27 light-chain) are diluted in 0.25% casein buffer to 1000 nM stock, then diluted serially 23 times with two fold dilutions. 50 μl of stock and serially diluted antibody (either exemplified tau monoclonal of Example 1 or humanized MC-1 antibody construct) are added to separate wells and incubated for 2 hours at room temperature, after which the plate is washed four times with 200 μl PBST per well. 50 μl of anti-human IgG-HRP antibodies (diluted at 1:4000 into 0.25% casein buffer) is added and incubated for 1 hour at room temperature, after which the plate is washed with 200 μl PBST per well 4 times. 50 μl of TMB/H2O2 is added and incubated at room temperature for about 10 minutes. Reaction is stopped by adding 50 μl stop solution (2N H2SO4) and colorimetric signal is measured at 450 nm. […]

[5] = molecular target: T1, recombinant tau (rTau); experiment: direct ELISA on rTau coated at 15 ng/ml; antibody stored 4 weeks at pH 6, 40 C; Study 2
Method: as §1

[6] = molecular target: T3, human tau aggregates; experiment: SPR (Biacore 2000), antibody captured on protein A, tau aggregate as analyte, 1:1 fit; not normalized for avidity
Method: as §2, §3, §4

[7] = molecular target: T1, recombinant tau (rTau); experiment: direct ELISA on rTau coated at 15 ng/ml; antibody stored 4 weeks at pH 6, 4 C; Study 1
Method: as §1

[8] = molecular target: T1, recombinant tau (rTau); experiment: direct ELISA on rTau coated at 15 ng/ml; antibody stored 4 weeks at pH 6, 4 C; Study 2
Method: as §1

[9] = molecular target: T1, recombinant tau (rTau); experiment: direct ELISA, rTau coated at 'Low' concentration (15 ng/mL), simulates tau monomer
Method: (§6) 3690) at a concentration corresponding to 0.7 μg/ml of total tau. Plates are incubated overnight at 4° C., then washed three times with 150 μl of PBST (PBS containing 0.05% Tween-20), blocked in 100 μl BB3 (ImmunoChemistry Technology, p/n. 643) at room temperature for at least 1 hr (usually 2 hrs). Following blocking, the blocking buffer is removed from the wells. Exemplified tau monoclonal antibody of Example 1 and a humanized MC-1 antibody construct (having the framework combination: 5-51 heavy-chain, A27 light-chain) are diluted in 0.25% casein buffer to 1000 nM stock, then diluted serially 23 times with two fold dilutions. […] Reaction is stopped by adding 50 μl stop solution (2N H2SO4) and colorimetric signal is measured at 450 nm. […]
(§7) Selectivity of tau monoclonal antibody of Example 1 to tau aggregates versus tau monomer is determined by direct ELISA. […] The plates, coated with high or low concentrations of rTau, respectively, are exposed to exemplified tau monoclonal antibody of Example 1 and binding of exemplified tau monoclonal antibody to the respective concentrations of rTau is measured substantially as described in the ELISA assay above.

[10] = molecular target: T1, recombinant tau (rTau); experiment: direct ELISA, rTau coated at high (1 ug/mL) against low (15 ng/mL) concentration
Method: as §6, §7

[11] = molecular target: T2, tau aggregates in sarkosyl-insoluble …; experiment: cell-based or functional assay; remark: listed apart in the source
[12] = molecular target: T4, purified tau fibrils from AD brain …; experiment: direct ELISA on coated purified AD tau fibrils (0.7 ug/ml total tau)
Method: as §5

[13] = molecular target: T1, recombinant tau (rTau); experiment: direct ELISA on rTau coated at 15 ng/ml; antibody stored 4 weeks at pH 6, 40 C; Study 1
Method: as §1

[14] = molecular target: T5, human monomeric (native or non-aggregate) tau (human, UniProt P10636 2-758); experiment: SPR (Biacore 2000), antibody captured on protein A, tau as analyte, steady state fit
T5 construct: Full-length human tau in monomeric state; analyte in SPR; also called Monomeric Tau; monomeric tau
Method: as §2, §3, §4

[15] = molecular target: T1, recombinant tau (rTau); experiment: direct ELISA on rTau coated at 15 ng/ml; antibody stored 4 weeks at pH 4, 40 C; Study 1
Method: as §1

[16] = molecular target: T1, recombinant tau (rTau); experiment: direct ELISA, rTau coated at 'High' concentration (1 ug/mL), simulates aggregated tau
Method: as §6, §7

T1 sequence (P10636 other isoform, or with tags, fused parts or gaps limits assumed): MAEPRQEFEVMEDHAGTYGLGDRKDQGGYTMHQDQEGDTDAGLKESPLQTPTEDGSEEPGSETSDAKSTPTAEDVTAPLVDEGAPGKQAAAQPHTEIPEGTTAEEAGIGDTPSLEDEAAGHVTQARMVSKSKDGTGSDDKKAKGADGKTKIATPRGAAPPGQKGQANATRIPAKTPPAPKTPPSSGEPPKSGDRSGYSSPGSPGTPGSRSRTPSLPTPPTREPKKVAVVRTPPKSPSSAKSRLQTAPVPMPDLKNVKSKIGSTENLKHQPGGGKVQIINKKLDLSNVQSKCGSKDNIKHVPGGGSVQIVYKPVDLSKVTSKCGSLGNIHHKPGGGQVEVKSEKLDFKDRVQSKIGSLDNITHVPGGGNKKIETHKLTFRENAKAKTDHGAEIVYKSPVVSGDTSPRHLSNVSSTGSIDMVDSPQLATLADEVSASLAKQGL
T3 sequence (P10636 other isoform, or with tags, fused parts or gaps limits assumed): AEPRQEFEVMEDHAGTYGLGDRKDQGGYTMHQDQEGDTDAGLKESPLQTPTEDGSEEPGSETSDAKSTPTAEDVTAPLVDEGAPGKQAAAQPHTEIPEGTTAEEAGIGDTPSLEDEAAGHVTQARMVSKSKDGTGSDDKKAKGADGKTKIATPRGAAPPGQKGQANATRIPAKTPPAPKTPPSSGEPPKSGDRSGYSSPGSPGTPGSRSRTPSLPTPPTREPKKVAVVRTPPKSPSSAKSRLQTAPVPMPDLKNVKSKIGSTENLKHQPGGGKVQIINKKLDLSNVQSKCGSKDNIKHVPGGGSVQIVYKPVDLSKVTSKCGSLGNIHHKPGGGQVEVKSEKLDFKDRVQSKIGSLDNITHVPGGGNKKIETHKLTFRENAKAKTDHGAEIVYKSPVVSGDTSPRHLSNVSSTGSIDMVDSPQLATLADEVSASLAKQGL

EC50 [1]: 277 pM | EC50 (representing inhibition of AT8-Positive Tau Aggregate propagation (ng/mL)) [2]: 16 ng/mL | koff [3]: < 1e-05 s⁻¹ | kon [3]: 45900 M⁻¹ s⁻¹ | fold improved affinity (as measured by EC50) over humanized MC-1 antibody construct [4]: 60 fold | EC50 [5]: 667 pM | Kd [6]: < 220 pM | EC50 [7]: 926 pM | EC50 [8]: 636 pM | EC50 [9]: 723 pM | fold improved affinity (as measured by EC50) to aggregate tau over monomeric tau [10]: 120 fold | fold improvement in the inhibition of induced tau aggregate propagation (against humanized MC-1 antibody construct) [11]: ~30 fold | EC50 [12]: 6.8 pM | EC50 [13]: 754 pM | Kd [14]: 235000 pM | EC50 [15]: 414 pM | EC50 [16]: 6 pM
B1: exemplified tau monoclonal antibody of Example 1 (antibody, human IgG4 S228P, kappa, F234A L235A, V domains shown)
VH: EVQLVQSGAEVKKPGESLKISCKGSGYTFSNYWIEWVRQMPGKGLEWMGEILPGSDSIKYEKNFKGQVTISADKSISTAYLQWSSLKASDTAMYYCARRGNYVDDWGQGTLVTVSS
VL: EIVLTQSPGTLSLSPGERATLSCRSSQSLVHSNQNTYLHWYQQKPGQAPRLLIYKVDNRFSGIPDRFSGSGSGTDFTLTISRLEPEDFAVYYCSQSTLVPLTFGGGTKVEIKR
notes: Humanized IgG4 (HC framework 5-51), kappa LC (framework A27); expressed in CHO cells; Carries seven CDR changes relative to murine MC-1; also called exemplified engineered tau monoclonal antibody
